Test: soluble on expression in E. coli; label from the status in PepcDB or PDB records

| Sequence | soluble on expression in E. coli |
| --- | --- |
| MGSDKIHHHHHHMPRPFRLSCALLHEPVSSNLMDLKYGDTSFSLAIPPERLMGVIRPSVPAPDSDPAAIISEALDRCADAIATFRTGERVVIVTSDITRYTGSEIYLPLLVERLAAAGVRERDIEIVVALGIHRKQTEHEHQRITGPLYGRIRITDHECDNPGKLVLIGRTSTGVDVVVNRTVAEADRVILTGTIGFHYFAGFGGGRKSILPGVAGRASCMASHYAVLNPGEGTGRNPLATTGNLEGNPVHQTMVEACAMVNPEFILNTVLSPAKRIIAAFAGHWREAHEEGCRFYADRFSFPLKKPADLVVVSCGGYPKDINVIQSHKSMEYGCQALRRGGVMVLLAQCRDGYGNATFFDWFRFRELDAFEARLRSHYEINGQTAFSLLQKARTFSIILVSDLPPEEVRTMGMTPARTLDEAMTAAASLLPSDYTAYVVPEGGTVLPIMM | not soluble |
| MKCTECSHEAGVSSFRYLYNARIDAPITLRQCPQCQAWLAVDEMAGEARQRVDAGEAPWGKSAGIEGLAEDAR | not soluble |
| MQTLKSDIRNRILSAAKEQFMQRGYLKTSMREIADAVDVGVGNLYNYFENKDELFCVILRPVSDALERMLQEHHGAKGADIMLICSEEYLKSAVDEYISLINKHGELMKILLFHSQGSSLETFREDYTNRSTEIVKTWFAEMKEKHPEINVVVSDFMIHLQAVWMFTLFEEMLKHAIDSKEMEYIVHEYILFEIQGWRALLRV | not soluble |
| MNNRIIYVVSDSVGETAELVVKAALSQFNGSADDTHVRRIPYVEDIGTINEVISLAKADGGIICFTLVVPEIREYLIAEAEKANVLYYDIIGPLIDKMETAYGLTAKYEPGRVRQLDEDYFKKVEAIEFAVKYDDGRDPRGILKADIVLIGVSRTSKTPLSQYLAHKRLKVANVPIVPEVDPPEELFNVDPKKCIGLKISPDKLNHIRKERLKSLGLNDKAIYANINRIKEELEYFEKIVDRIGCQVVDVSNKAVEETANIIHHLKTKNIAAALEHHHHHH | not soluble |
| MGSDKIHHHHHHMVDTNHKIAFCIDSDGCAMDTMTYKHQLFFGPIAADIFGISEQERTSFLKEWDRVNLYSRTRGVNRFVGLVMGLEFAGVEHIDKLKEWVETTDSLSNNSLELALANDFSRDLEKALEWSNEVNRQIKNYEGDSLAFSGVLESLERLSQFGNVYVVSSANKEAVWQEWEEQGLLKYVDDIYCQDRGKKEDVIATLIASGYCRETILMVGDSLGDLAAAEQNGIAFYPVLVGKEVKSWEILREDIGEAFAKGQFEQQRQKESINTFWANLDN | not soluble |
| MVTDHGYKCRITNIVPLSEHEKLFQLRIVDPRERELFTFRPGQFLMLEVPGYGEAPISISSATSNREFIELCIRKAGHVTSALFEAKQGAFVAVRGPFGTSFPMEAMQDHDVLLIAGGLGIAPLRAPLFWINDHRDHYRNVSFLYGAKEPSQMLFTYQFEEWKTVSHIDLHTIVEKPDDQWTGRTGMITLLFDEITIDPKNTWAIVCGPPVMFKFVCTHLDKLGIPMNRMFVSLERHMNCGMGKCCRCMVGSTFTCLDGPVFDYWSVMNLKEAI | not soluble |
| MGSDKIHHHHHHMRRLLTGCLLSSARPLKSRLPLLMSSSLPSSAGKKPKQATLARFFTSMKNKPTEGTPSPKKSSKHMLEDRMDNVSGEEEYATKKLKQTAVTHTVAAPSSMGSNFSSIPSSAPSSGVADSPQQSQRLVGEVEDALSSNNNDHYSSNIPYSEVCEVFNKIEAISSRLEIIRICSDFFIKIMKQSSKNLIPTTYLFINRLGPDYEAGLELGLGENLLMKTISETCGKSMSQIKLKYKDIGDLGEIAMGARNVQPTMFKPKPLTVGEVFKNLRAIAKTQGKDSQLKKMKLIKRMLTACKGIEAKFLIRSLESKLRIGLAEKTVLISLSKALLLHDENREDSPDKDVPMDVLESAQQKIRDAFCQVPNYEIVINSCLEHGIMNLDKYCTLRPGIPLKPMLAKPTKAINEVLDRFQGETFTSEYKYDGERAQVHLLNDGTMRIYSRNGENMTERYPEINITDFIQDLDTTKNLILDCEAVAWDKDQGKILPFQVLSTRKRKDVELNDVKVKVCLFAFDILCYNDERLINKSLKERREYLTKVTKVVPGEFQYATQITTNNLDELQKFLDESVNHSCEGLMVKMLEGPESHYEPSKRSRNWLKLKKDYLEGVGDSLDLCVLGAYYGRGKRTGTYGGFLLGCYNQDTGEFETCCKIGTGFSDEMLQLLHDRLTPTIIDGPKATFVFDSSAEPDVWFEPTTLFEVLTADLSLSPIYKAGSATFDKGVSLRFPRFLRIREDKGVEDATSSDQIVELYENQSHMQN | not soluble |
| MILKPIGVVKSPFKTQNDAPRQGRFSDAVSEIAIFDEYADGLHKIENLRHIIVLYWMDKASRDKLRVVPPGETEERGVFTTRSPSRPNPIGLCVVEILEVERNRLKVRWLDALDGSPVIDIKKYSPEIDCVNQLEGQQP | not soluble |
| INQYNQKKSQEYTDMQLLLQKESDFAQYYEMILSQSENQSILIHDIKKHLQSIKLLNEKNDSDKINAYIQQLLESSDLKETSKICDNEMLNAILCRYQRQCNEKHIVFHTDIRSDTVQNIYQHDLTSLFCNLLDNALESADNIPDSFIELTVEKKENSPFIIIILINSCRSTPVYDQDGLPVSHKANKGRHGFGIKSIKKVVKQYHGNLQMYYDNDSGTFHTIITLKQ | not soluble |
| MGSDKIHHHHHHMAEVHVIGQIIGATGFSESSLFCKWGIHTGAAWKLLSGVREGQTQVDTPQIGDMAYWSHPIDLHFATKGLQGWPRLHLQVWSQDSFGRCQLAGYGFCHVPSSPGTHQLDCPTWRPLGSWREQLARAFVGGGPQLLHADTIYSGADRYRLHTAAGGTVHLGIGLLLRHFDRYGVEC | not soluble |
| MVINQTFLQNNVMDKCNDKRKRGERDWDCPAEKDICISDRRYQLCMKELTNLVNNTRTHSHNDITFLKLNLKRKLMYDAAVEGDLLLKKNNYQYNKEFCKDIRWGLGDFGDIIMGTNMEGIGYSQVVENNLRSIFGTDEKAKQDRKQWWNESKEHIWRAMMFSLRSRLKEKFVWICKKDVTLKVEPQIYRWIREWGRDYMSELPKEQGKLNEKCASKLYYNNMAICMLPLCHDACKSYDQWITRKKKQWDVLSTKFSSVKKTQKIGTENIATAYDILKQELNGFKEATFENEINKRDNLYNHLCPCVVEEARKNTQENVKNVGSGVESKAASSNPITE | soluble |
| MGSDKIHHHHHHMIFKRKVYDKLIEWKTLAAGTSAVLLEGARRIGKSTIVEEFAKKEYDDYMILDFARENQDVKNNFVENMNDLDTFFRNLFLLKGKRLKGKNCVIIFDEVQLFPQARQAIKYLVADGRYEYIETGSLISIRKNVKDILIPSEEYRIKMYPMDFEEYLWAINDEVTIPTIRESFEKRKPLGDAIHRRIMKSFRTYMVVGGMPQAVDAYVSGKSYEQIDFVKRNILSLYEEDLAKYDTENREKASVIYRTIPEQLENKNSHFKLSMVDKNARYQNYMDAVSFISEAMIGNECINVTKPEVALELFADRSNFKLYMGDTGLLVTQIMKNRDSTDEDLYKALIIDNLGINQGMIVENIVAQMLRAAGHELYFHEYLYVPEGTTREKKYEIDFMIVKKKKICPIEVKSSNYMSHKSFDYLIQKYQLKCENRFIIYTKDLKYQDGIMYIPIYMTMLL | not soluble |
| MSTSLTIRLVAEADWPALHALDQIIWTKKNTPAEIQPLSLAAYQEKMKDETIFVAISGQQLAGFIEVHPPTSLAAHQKQWLLSIGVSPDFQDQGIGGSLLSYIKDMAEISGIHKLSLRVMATNQEAIRFYEKHGFVQEAHFKEEFYINGHYCDDYQYAYFIEK | soluble |
| MYAGINYDQLFGTEQVRERQLPLHSSQAQHFLNEVKPILDNRCVVCHACYDAPCQLKMTSAEGIDRGASKALVYQGTRLTAATPTRLYEDAQLTQEWRAAGFHPVLNERNQTAQANLDAGVMARLLMQKERHPLPQQDQLQGFDFSIDREQTCPTINEMDHFEQVNPNWGMPFGMPNLSPKEYTTLLSWLQEGAVMNQALPLSAQEQALVTEYEALLNHSSRKNQLAARYIYEHLFLSHLYFSEIAQERPRFFKLIRSSTPPGEPVKRIVTRRPYDDPGVERVYYRLVPEQETIVDKTHMPFALNKQRIANWKLWFIDADYEVAELPSYRPDIAANPMSAFIDLPVKARFKFLLDNAQNTVMAFIKGPVCRGQLALNVINDRFWVFFLDPEKADLPEVNEFYRSQVNNLKLPAEQENTALPLSNWVRYSLQQSRYLEAKSEFINQWFKNGTHLTTDIIWDGAGINPNAALTIFRHFDSASVVQGLVGEPPKTAWIMDYALLERIHYLLVAGFDVYGNFGHQLITRMFMDFLRMEGESNFVALLPRDMRHQELSSWYQNQSVQFSDFLQRNVKPFDQPTSVNYVTDNPKQELFAKLRKQVQSVLSDRYVITQTGFKAEHEFALRQIDHLRGEGLLPIPQLMMLMIESEQGKPQLFTLIHNNAHTNISSLFDEQNNRDPKNDNLTLVRGVVGSYPSAYLTLKENQIPELYQRLAAMKSEQDYVALLDRFAVRRSSPEFWAFSDLVHQWYRQDQPIEFGLLDYNRFENRLEHHHHHH | not soluble |
| MCTGFTIQTLNNQVLLGRTMDYDYPLDGSPAVTPRNYRWKSRTGTTGQTQYGFIGTGTDMEGFIYGDGVNEHGVAISTQYFRGYSSYGSTHKADAMNITQNEIVTWILVYTTSIEDMKQQASQIHVVAVYLNDIGEVPPLHYHVSDATGHTVEVSFKEGEVVIKDNPIGVLTNHPDLNWHYSNLRQYINISPYPATANLLEGVTIEPLGNEAGTFGLPGGFTSTERFVRMTFMKANIAQNNDKEMDLMNAFYLLDAVNIPIGIVRPHDADNHYTMYQTVINLTTRTLYIKYYGSNELVALKLTDDLINRKDMTIFKPEKHITIRKLNDNQ | not soluble |
| SLRITLEFTGEKNLILPIHYNYIVQGLLYDLMGDTDFAAFLHDVGFQYEKRRFKLFTFSRIEGEFQIVEKPNGQKKIIIKPPFKFTVASPLEEVIIDISKNILKREYCHFNGQKFTLNSLNIENPPIFKEKARIKFISPVVMYTTLRNGEKKYTYYYSPWDEKFSPLLLNNLVKKYELVYKIKPKNPHFKLIPLTEKEDRRYSKVIKYKNVYVKGWMGIYDVETTPELLELAYYTGLGAKNSQGFGCFEIIG | not soluble |
| SPPENRGEHETGRTLHIATYNIHKGLSFFNQRLILHELRDQLHGLDVDVVFLQEVVGEHALHATRFRDWPRNTQYEFLADSMWPDFAYGKNAVYGHGHHGNAILSRFSIVNWENEDISAHRFESRGLLHCELAIPGWKDTLHCICVHLGLFRRGRSQQLEAIEKRIRQLVSPDAPLVVAGDFNDWRGAANPLLASRLNLVEVFQHTHGKAARSFPSVLPLLRLDRIYIRGFQVKNAQILHNRPWSRISDHAVLSANIMRT | not soluble |
| MGSDKIHHHHHHMKIAQIAPLTESVPPKLYGGTERVVSYITEALVDLGHDVTLFASGDSVTNAKLEAVWPRALRLDPGIRDRVAPHMLLMELVRRQAENFDVLHFHLDYYSFSVFKRQETPFVTTMHGRLDLPEQQPVFDTFNTAPVISISNAQRHPLPQARWLTTVYHGLPEQLYTPQPVEQKYLAFLGRISPEKRVDTAIRIAGRCGMPIRIAAKVDAADREYFERDIRPLLDLPYVEFIGEIADHQKAEFLSGAHALLFPIDWPEPFGLVMIEAMACGTPVIAFNRGSVPEVLEDGVTGFIVEDEIGAVAAVNRLHKMPRAGVRQRFEERFTSHRMAQQYVNAYQSVIRAQKRSRFKVIDTSGS | not soluble |
| MGSDKIHHHHHHMEQLLHYVWKHKIFPLHELQTTTGLPVEVIDTGLPNSDSGPDFFNAKLKIGGTLWVGNVEIHTASSDWFRHGHDRDIAYDSVILHIVTEIDCEIYRSNGEPVPQLRLPCPEQVKEHYDELCRADIHPPCYSILETLPKLTIHSWLTALQTERFDQKNRTITRRLQRCNQHWEDAFFITLARNFGFGLNGDAFETWANLLSFRAIDKHRDDLTQVEAFFFGQAGLLEGESADDYFSWMQKEFRYLQHKFELPPVMNPSLWRFLRLRPGNFPHVRLAQLASLYYRERSLFSRVMEAETLKDLKHIFAGHTSAYWEEHFMFGKSSPRREKSIGAGAKELIIINTVIPFLYAYGLHKADERLCERAASLLEELKAENNYVTRMWSGAGIPVQTAADSQALLQLQKEYCDKKKCLYCRFGYEYLRHK | not soluble |

Source: the DeepSol protein solubility set
